According to patent publication US8524227B2, “Anti-IL-TIF antibodies” (ZymoGenetics, Inc., priority 2002, dated 2013):

Assay: LPS-induced endotoxemia mouse model
Type: in vivo, mice
Description: Briefly, six month Balb/c (CRL) female mice were injected with 25 μg LPS (Sigma) in sterile PBS intraperitoneally (IP). Serum samples were collected at 0, 1, 4, 8, 16, 24, 48 and 72 hr from groups of 8 mice for each time point. Serum samples were assayed for inflammatory cytokine levels. IL-1b, IL-6, TNFa, IL-10 and serum amyloid A protein (SAA) levels were measured using commercial ELISA kits purchased from Biosource International (Camarillo, Calif.).
Body temperatures in a separate group of animals were monitored by surgically implanted telemetry devices over the course of the 72 hr experiment. Body temperatures in mice dropped maximally by 2° C. from 37.07° C. to 34.98° C. 30 minutes after LPS injection.
The ability of zcytor16 treatment to effect proinflammatory indicators induced with a single 25 μg LPS dose IP in mice was tested. All samples were analyzed for SAA, IL-TIF and circulating neutrophil counts. Subsets from each group were analyzed for particular cytokine levels (1 hour samples were screened for TNF alpha, 4 hour samples were analyzed for IL-6) Animals were sacrificed at indicated time points in Table 17 below and whole blood and serum were collected and aliquoted for analysis.
72 B1/6 female mice (CRL) were given a single IP dose of zcytor16 as described in Table 17, below. Control mice were C57B1/6 (CRL).
30 minutes later, they received another IP injection of 25 μg LPS (Sigma) in 100 μl, to initiate an endotoxemia cascade.
To assess whether zcytor16 could inhibit the SAA induction in the LPS-induced endotoxemia mouse model, mice were injected with Zcytor16, 30 minutes prior to LPS injection, as shown in Table 17 in Example 31C above.
An ELISA to determine SAA levels in the 4 hour and 8 hour samples was performed using the Mouse SAA Immunoassay Kit (BioSource International, California) following the manufacturer's directions.

B1: zcytor16-Fc4: soluble receptor for IL-TIF, zcytor16 fused to Fc4; IL-TIF antagonist (protein)
chain: TQSTHESLKPQRVQFQSRNFHNILQWQPGRALTGNSSVYFVQYKIYGQRQWKNKEDCWGTQELSCDLTSETSDIQEPYYGRVRAASAGSYSEWSMTPRFTPWWETKIDPPVMNITQVNGSLLVILHAPNLPYRYQKEKNVSIEDYYELLYRVFIINNSLEKEQKVYEGAHRAVEIEALTPHSSYCVVAEIYQPMLDRRSQRSEERCVEIPEPRSSDKTHTCPPCPAPEAEGAPSVFLFPPKPKDTLMISRTPEVTCVVVDVSHEDPEVKFNWYVDGVEVHNAKTKPREEQYNSTYRVVSVLTVLHQDWLNGKEYKCKVSNKALPSSIEKTISKAKGQPREPQVYTLPPSRDELTKNQVSLTCLVKGFYPSDIAVEWESNGQPENNYKTTPPVLDSDGSFFLYSKLTVDKSRWQQGNVFSCSVMHEALHNHYTQKSLSLSPGK
- effect on SAA induction (10 ug 30 minutes prior to LPS): did not have significant effect
- reduction of the SAA induction (100 ug 30 minutes prior to LPS, 4 hr and 8 hr): about 50%
- neutrophil count in circulation (1 hr time point): reduced neutrophil count
- SAA levels relative to PBS injected mice (4 hour, 100 μg or 10 μg): dose-dependant, statistically significant reduction
- SAA levels relative to PBS injected mice (8 hour, 100m): statistically significant reduction
- TNF-alpha and IL-6 level (mouse, in vivo): no significant change
